Assay results reported in IntAct's records for PubMed 18394558.

B1: Cyclin-dependent kinase 4 inhibitor C (Homo sapiens), P42773 (parent)
chain: MAEPWGNELASAAARGDLEQLTSLLQNNVNVNAQNGFGRTALQVMKLGNPEIARRLLLRGANPDLKDRTGFAVIHDAARAGFLDTLQTLLEFQADVNIEDNEGNLPLHLAAKEGHLRVVEFLVKHTASNVGHRNHKGDTACDLARLYGRNEVVSLMQANGAGGATNLQ

Variants of: B1
Conditions: with cdk6_human CDK6, Q00534
Chain of cdk6_human CDK6, Q00534 (Q00534 whole entry): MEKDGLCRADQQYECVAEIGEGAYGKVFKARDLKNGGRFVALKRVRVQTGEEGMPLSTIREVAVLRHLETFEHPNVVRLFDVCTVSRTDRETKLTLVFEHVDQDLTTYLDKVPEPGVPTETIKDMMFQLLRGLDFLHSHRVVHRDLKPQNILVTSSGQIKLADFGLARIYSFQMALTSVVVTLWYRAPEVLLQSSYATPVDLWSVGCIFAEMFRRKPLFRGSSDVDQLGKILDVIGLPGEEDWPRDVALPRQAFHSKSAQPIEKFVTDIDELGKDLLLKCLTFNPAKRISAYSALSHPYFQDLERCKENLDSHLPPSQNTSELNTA

Variant	effect of a mutation on the interaction
MAEPWGNELASAAARGDLEQLTSLLQNNVNVNAQNGFGRTALQVMKLGNPEIARRLLLRGDNPDLKDRTGFAVIHDAARAGFLDTLQTLLEFQADVNIEDNEGNLPLHLAAKEGHLRVVEFLVKHTASNVGHRNHKGDTACDLARLYGRNEVVSLMQANGAGGATNLQ [A61D]	decreasing interaction
MAEPWGNELASAAARGDLEQLTSLLQNNVNVNAQNGIGRTALQVMKLGNPEIARRLLLRGANPDLKDRTGFAVIHDAARAGFLDTLQTLLEFQADVNIEDNEGNLPLHLAAKEGHLRVVEFLVKHTASNVGHRNHKGDTACDLARLYGRNEVVSLMQANGAGGATNLQ [F37I]	disrupting interaction
